Laboratory results: the supplement of paper PMC10126150
± gives the standard deviation of the averaged measurements.

System: ATP
Test: switch fluorescence ratio, 500 uM ATP over buffer (Cy3 cluster intensity, sum of 5 cycles each) (fold (ratio)); higher = stronger signal-on switching upon ATP binding; sequences stand for … in TCGTCGGCAGCGTCAGATGTGTATAAGAGACAGTTTTTTTTTTTTTTTTTTTTTTTTT…TC
Conditions: aptamer strand: ATP DNA aptamer (quencher-CACCTGGGGGAGTATTGCGGAGGAAGG + anchor), 100 nM annealed; ATP concentration: 500 uM
Procedure, shortened: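 Clusters with intensities outside 100-1000 RFU were excluded. The remaining Cy3-labelled switching-strand clusters on a modified Illumina MiSeq flow-cell had been annealed to 100 nM quencher-labelled ATP aptamer and imaged in selection buffer, then after 15 min with 500 uM ATP at 22 °C, for five cycles separated by NaOH stripping and re-annealing. The fluorescence ratio, averaged per switch-domain sequence, is each cluster's summed target-cycle Cy3 intensity over its summed buffer-cycle Cy3 intensity.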
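Further: ATP exposure 15 min at 22 °C before imaging.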

ACAAGATACG
switch fluorescence ratio: 1.13 ± 0.013

TAAATAGGGA
switch fluorescence ratio: 1.01 ± 0.03

CTTGAAGTTA
switch fluorescence ratio: 1 ± 0.011

ATATATGGGA
switch fluorescence ratio: 0.973 ± 0.022

CGATACCGTG
switch fluorescence ratio: 1.007 ± 0.0044

GATGATGTTC
switch fluorescence ratio: 0.9439 ± 0.0072

CAATACCTAT
switch fluorescence ratio: 1.05 ± 0.022

TGGTTCGGGT
switch fluorescence ratio: 1.03 ± 0.036

TCCGAGGGAG
switch fluorescence ratio: 1.05 ± 0.079

TGGTGGTAGG
switch fluorescence ratio: 0.984 ± 0.063

AAGGTATTGA
switch fluorescence ratio: 0.9782 ± 0.0046

AGAGGGTTTG
switch fluorescence ratio: 0.998 ± 0.025

CGCATCCTTG
switch fluorescence ratio: 1.03 ± 0.027

TTCGTTTATT
switch fluorescence ratio: 1.01 ± 0.046

CGTAGCGGTA
switch fluorescence ratio: 1.53 ± 0.098

TCAATGCGCC
switch fluorescence ratio: 1.46 ± 0.4

TCTAATAGCC
switch fluorescence ratio: 1.03 ± 0.08

CAAAGACACA
switch fluorescence ratio: 0.985 ± 0.012

CGATACGATT
switch fluorescence ratio: 1.06 ± 0.076

TATAACTCAT
switch fluorescence ratio: 1.02 ± 0.029

GGTCGTTGAA
switch fluorescence ratio: 1.02 ± 0.057

CGGACCAGCG
switch fluorescence ratio: 0.965 ± 0.0086

CTAATTGCCA
switch fluorescence ratio: 0.994 ± 0.017

GAGGGGAATT
switch fluorescence ratio: 0.983 ± 0.014

GGCTAAGTTT
switch fluorescence ratio: 0.97 ± 0.02

TATTTTACGT
switch fluorescence ratio: 1.01 ± 0.013

CATTCTAAAG
switch fluorescence ratio: 1.02 ± 0.011

AAGGGGTTAG
switch fluorescence ratio: 0.975 ± 0.016

TTTTAACGGA
switch fluorescence ratio: 1.03 ± 0.041

TCGTGTTTCA
switch fluorescence ratio: 1 ± 0.014

ATTTATACGC
switch fluorescence ratio: 1.06 ± 0.038

ACTTTTCGGG
switch fluorescence ratio: 0.9921 ± 0.0056

TTTTTCACTT
switch fluorescence ratio: 1 ± 0.036

GGGTTACGAT
switch fluorescence ratio: 0.994 ± 0.021

ATTGTTCCGT
switch fluorescence ratio: 1.02 ± 0.021

CGGGGGGGC
switch fluorescence ratio: 1.001 ± 0.01

AGAGGTCTTG
switch fluorescence ratio: 0.979 ± 0.029

AGAATATTTT
switch fluorescence ratio: 0.963 ± 0.011

GCGCTATGAG
switch fluorescence ratio: 1.04 ± 0.02

GCATGAACAT
switch fluorescence ratio: 0.98 ± 0.026

TTTTAGGGGT
switch fluorescence ratio: 1.02 ± 0.046

GAGTAGGAGG
switch fluorescence ratio: 0.974 ± 0.051

TTGCTGTACG
switch fluorescence ratio: 1.04 ± 0.021

TGGTATGTAG
switch fluorescence ratio: 1.02 ± 0.031

GGGTGCGCTG
switch fluorescence ratio: 1.03 ± 0.014

TAGTTATTA
switch fluorescence ratio: 0.989 ± 0.026

GATTACGGGG
switch fluorescence ratio: 1.006 ± 0.0014

GTAGTTCTAG
switch fluorescence ratio: 0.9852 ± 0.0081

GGGGGTTCCT
switch fluorescence ratio: 1 ± 0.032

CTAATTGGTT
switch fluorescence ratio: 0.988 ± 0.015

CCCGGGGGGG
switch fluorescence ratio: 1.1 ± 0.13

GAGATAAGGG
switch fluorescence ratio: 0.961 ± 0.061

CGTAGAGCGA
switch fluorescence ratio: 1.03 ± 0.015

AGTAGTGAGG
switch fluorescence ratio: 0.979 ± 0.017

CGGGTATGCC
switch fluorescence ratio: 0.96 ± 0.0098

GTGAGCCGGG
switch fluorescence ratio: 1.01 ± 0.014

GCACGTTTTT
switch fluorescence ratio: 1 ± 0.03

CTGTTGTTTG
switch fluorescence ratio: 0.9784 ± 0.0016

GATGTAATTT
switch fluorescence ratio: 1.03 ± 0.023

CCACTATTCT
switch fluorescence ratio: 1.001 ± 0.0062

TAATCAGTGC
switch fluorescence ratio: 0.998 ± 0.068

CAAGCAGGCA
switch fluorescence ratio: 0.9935 ± 0.0067

TTAGGTAGCA
switch fluorescence ratio: 1.007 ± 0.0024

ACGGGGGCGC
switch fluorescence ratio: 0.986 ± 0.059

AGATTCGTCA
switch fluorescence ratio: 0.988 ± 0.018

TGGTTAGATT
switch fluorescence ratio: 0.996 ± 0.034

TGAAATTGTG
switch fluorescence ratio: 1.01 ± 0.022

TGAAATCAGT
switch fluorescence ratio: 1.01 ± 0.018

TCGCTACTCG
switch fluorescence ratio: 3.07 ± 0.62

TTCAGTATGG
switch fluorescence ratio: 0.9614 ± 0.0068

GTTGAAGGCA
switch fluorescence ratio: 1.01 ± 0.022

GGTGAAAAGC
switch fluorescence ratio: 1.02 ± 0.059

TTCGGAACAG
switch fluorescence ratio: 0.967 ± 0.013

CTCACTAGCG
switch fluorescence ratio: 1.02 ± 0.031

ACGACTTAGG
switch fluorescence ratio: 1.07 ± 0.017

GCAAGAGATA
switch fluorescence ratio: 1.02 ± 0.017

TCGCTTACTG
switch fluorescence ratio: 1.3 ± 0.053

ATTAGAGATT
switch fluorescence ratio: 1.01 ± 0.028

TAAAATTTAT
switch fluorescence ratio: 0.994 ± 0.028

TCAGGGAGTA
switch fluorescence ratio: 1.04 ± 0.053

TTTTATCGAG
switch fluorescence ratio: 0.9893 ± 0.0093

TGGGTGTGCT
switch fluorescence ratio: 1.01 ± 0.03

AATATATCGC
switch fluorescence ratio: 0.977 ± 0.018

GGTTACTGTT
switch fluorescence ratio: 1.08 ± 0.096

GTCAGTTTTT
switch fluorescence ratio: 0.99392 ± 0.00038

AATAGGTTGT
switch fluorescence ratio: 0.992 ± 0.015

GACGAAGCAT
switch fluorescence ratio: 5.33 ± 0.82

TTGATTGCTT
switch fluorescence ratio: 0.9717 ± 0.0011

TTGTCGTCGC
switch fluorescence ratio: 0.989 ± 0.024

TTTTATGGGA
switch fluorescence ratio: 0.9849 ± 0.0032

ACGAGGGAGC
switch fluorescence ratio: 1.05 ± 0.017

CCATTTCTTG
switch fluorescence ratio: 0.9906 ± 0.0095

TTCAGAAGCC
switch fluorescence ratio: 1.12 ± 0.061

GCTTTTGGTG
switch fluorescence ratio: 1.02 ± 0.032

GATACTGGGT
switch fluorescence ratio: 0.995 ± 0.046

TTATCTCTGG
switch fluorescence ratio: 0.9776 ± 0.0076

CGGGCGGGTA
switch fluorescence ratio: 1.034 ± 0.0088

TCAGTGGGGT
switch fluorescence ratio: 1.004 ± 0.0072

ACGGTCACCC
switch fluorescence ratio: 1.66 ± 0.07

GCTGGTTTGG
switch fluorescence ratio: 0.972 ± 0.052

TGCGATTGGT
switch fluorescence ratio: 1.01 ± 0.012

TGCGTATATG
switch fluorescence ratio: 1.005 ± 0.0085

GCTAAAACAT
switch fluorescence ratio: 1.0086 ± 0.00063

GGTTGTTCCG
switch fluorescence ratio: 0.9973 ± 0.0073

ATTTAGCCTA
switch fluorescence ratio: 0.9758 ± 0.0079

AAGTTTGGGA
switch fluorescence ratio: 1.07 ± 0.091

GATTATGGTT
switch fluorescence ratio: 0.9891 ± 0.003

GCGGTTGTCC
switch fluorescence ratio: 1.0001 ± 0.00078

TCGTTCAGGA
switch fluorescence ratio: 0.995 ± 0.013

GCAGAGGGGA
switch fluorescence ratio: 0.981 ± 0.039

TTTTTATCTA
switch fluorescence ratio: 1.01 ± 0.036

TTAGACGCGG
switch fluorescence ratio: 0.98 ± 0.036

CTAAAGTTGG
switch fluorescence ratio: 0.995 ± 0.02

GGGTAAGCTT
switch fluorescence ratio: 0.996 ± 0.016

CATTTAGTAT
switch fluorescence ratio: 1.01 ± 0.013

AATAGTTATT
switch fluorescence ratio: 0.9791 ± 0.003

GAAATAATGT
switch fluorescence ratio: 1.03 ± 0.055

GAGGTCGGCA
switch fluorescence ratio: 1.02 ± 0.011

TGCTTGGGTA
switch fluorescence ratio: 1.01 ± 0.021

GCGCGGAACG
switch fluorescence ratio: 0.998 ± 0.047

CGCCCCAGTG
switch fluorescence ratio: 3.02 ± 1.8

TCGTTGAGGG
switch fluorescence ratio: 0.96 ± 0.036

GCTTGAGGAA
switch fluorescence ratio: 0.982 ± 0.034

CCTGCTTTGG
switch fluorescence ratio: 1.07 ± 0.083

AAGAAATTAA
switch fluorescence ratio: 1.01 ± 0.045

AGGTTCGG
switch fluorescence ratio: 0.9937 ± 0.0069

TAAAAGTATA
switch fluorescence ratio: 0.985 ± 0.018

TTGAGCATAG
switch fluorescence ratio: 1.43 ± 0.44

GATAGGGAGG
switch fluorescence ratio: 0.993 ± 0.016

AATAGCGACT
switch fluorescence ratio: 1.026 ± 0.0052

CGCTCCGCCT
switch fluorescence ratio: 2.36 ± 0.11

GCGTAGGTAG
switch fluorescence ratio: 0.964 ± 0.038

ACCAGTGTCA
switch fluorescence ratio: 1.02 ± 0.021

TTACAGGGGC
switch fluorescence ratio: 1.11 ± 0.061

AATGCGTTTT
switch fluorescence ratio: 1.04 ± 0.023

AGGGGGCAAT
switch fluorescence ratio: 1.11 ± 0.18

TATGGAGGAT
switch fluorescence ratio: 1.09 ± 0.13

CATGGCTTAT
switch fluorescence ratio: 1.01 ± 0.038

CAGGTTGGGT
switch fluorescence ratio: 1.001 ± 0.0086

ATAGGGGGGA
switch fluorescence ratio: 1.01 ± 0.018

CGGAATAGCT
switch fluorescence ratio: 1.22 ± 0.024

TATGGGTGGC
switch fluorescence ratio: 1.02 ± 0.11

TGTATTTCGT
switch fluorescence ratio: 1.01 ± 0.011

TTGCGTTGTG
switch fluorescence ratio: 0.992 ± 0.041

ACCGGAGTCA
switch fluorescence ratio: 1.22 ± 0.058

CAATTACTTT
switch fluorescence ratio: 1.06 ± 0.026

GTTAGGTATT
switch fluorescence ratio: 0.93 ± 0.023

TATATGCCGT
switch fluorescence ratio: 1.02 ± 0.066

GCTTGTGATC
switch fluorescence ratio: 1.01 ± 0.028

GGGATGTAAG
switch fluorescence ratio: 0.966 ± 0.027

TTTTCTGGAA
switch fluorescence ratio: 1.01 ± 0.029

CGGTTGTTGA
switch fluorescence ratio: 1.01 ± 0.031

TTAGTGGCGA
switch fluorescence ratio: 1.19 ± 0.31

TTCAGATGCG
switch fluorescence ratio: 0.993 ± 0.041

CCACCTTAAG
switch fluorescence ratio: 1.04 ± 0.033

AGAAAAGTAC
switch fluorescence ratio: 1.08 ± 0.076

TGAGCTCACG
switch fluorescence ratio: 1.02 ± 0.027
